Earlier results as cited in PMC3437676.

Biological target: Asp25 (UniProt position 515, KEALLDTGADD)
Test: NMR
Conditions: free model peptide

HIV-1 protease model peptide, residues 20-30 (Human immunodeficiency virus 1)
pKa: near 4.0
